# From article PMC9860152
# T1: REST-FL (human, UniProt Q13127 1-1097)
# T1 sequence: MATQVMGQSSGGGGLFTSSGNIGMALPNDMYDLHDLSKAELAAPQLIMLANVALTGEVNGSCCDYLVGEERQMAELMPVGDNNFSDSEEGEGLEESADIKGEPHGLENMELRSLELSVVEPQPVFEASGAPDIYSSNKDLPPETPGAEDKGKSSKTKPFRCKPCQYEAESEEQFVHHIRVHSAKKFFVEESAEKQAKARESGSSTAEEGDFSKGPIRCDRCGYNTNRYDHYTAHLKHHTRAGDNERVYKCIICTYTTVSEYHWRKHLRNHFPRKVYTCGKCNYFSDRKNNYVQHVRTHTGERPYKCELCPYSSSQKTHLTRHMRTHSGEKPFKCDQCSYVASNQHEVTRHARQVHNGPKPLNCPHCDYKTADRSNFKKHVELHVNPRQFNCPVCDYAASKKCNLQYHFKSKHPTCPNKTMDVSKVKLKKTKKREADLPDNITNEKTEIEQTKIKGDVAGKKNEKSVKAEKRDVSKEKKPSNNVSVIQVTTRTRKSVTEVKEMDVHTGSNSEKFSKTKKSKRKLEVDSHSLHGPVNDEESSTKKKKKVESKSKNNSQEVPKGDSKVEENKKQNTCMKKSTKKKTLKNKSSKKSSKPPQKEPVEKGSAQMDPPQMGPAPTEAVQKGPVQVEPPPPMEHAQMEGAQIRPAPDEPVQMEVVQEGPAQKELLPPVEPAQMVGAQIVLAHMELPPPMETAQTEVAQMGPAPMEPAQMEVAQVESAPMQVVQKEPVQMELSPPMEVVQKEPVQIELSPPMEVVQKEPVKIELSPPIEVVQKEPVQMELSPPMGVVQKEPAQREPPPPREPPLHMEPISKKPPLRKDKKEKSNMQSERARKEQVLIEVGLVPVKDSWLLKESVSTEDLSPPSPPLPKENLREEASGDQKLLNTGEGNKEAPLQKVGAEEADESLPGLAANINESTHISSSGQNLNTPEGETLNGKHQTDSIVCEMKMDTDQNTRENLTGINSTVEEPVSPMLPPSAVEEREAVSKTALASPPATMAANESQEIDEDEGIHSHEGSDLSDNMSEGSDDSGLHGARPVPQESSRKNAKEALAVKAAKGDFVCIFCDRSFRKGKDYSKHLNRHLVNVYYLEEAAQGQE
# T2: REST-N62 (REST4-S3) (human, UniProt A0A087X1C2 1-340)
# T2 sequence: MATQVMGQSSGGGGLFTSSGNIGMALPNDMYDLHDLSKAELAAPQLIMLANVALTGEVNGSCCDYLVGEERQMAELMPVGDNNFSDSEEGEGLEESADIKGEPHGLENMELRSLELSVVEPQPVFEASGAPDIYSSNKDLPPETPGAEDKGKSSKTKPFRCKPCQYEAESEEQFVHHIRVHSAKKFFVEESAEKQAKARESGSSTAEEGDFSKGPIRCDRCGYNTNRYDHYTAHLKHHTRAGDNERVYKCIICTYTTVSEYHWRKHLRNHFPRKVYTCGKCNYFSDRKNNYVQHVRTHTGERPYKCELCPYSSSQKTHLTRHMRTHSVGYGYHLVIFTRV
# Assays:
# [1] = biological target: T1, REST-FL; assay: fluorescence anisotropy
# [2] = biological target: T2, REST-N62 (REST4-S3); assay: fluorescence anisotropy
binder,measurement,setting,value
NRSE (RE1) 21 bp duplex (dsDNA) DNA 1: TTCAGCACCATGGACAGCGCC DNA 2: GGCGCTGTCCATGGTGCTGAA,Kd,[1],5.7 ± 0.6 nM
same,binding result,[2],no binding
